In US20180291110A1:

Target: complement factor C1q (Sigma, C1740) (UniProt P02745)
Assay: flow cytometry, C1q on antibody-coated BT-474 cells

complement factor C1q (Sigma, C1740), sequence (P02745 23-245, chain 1 of 3): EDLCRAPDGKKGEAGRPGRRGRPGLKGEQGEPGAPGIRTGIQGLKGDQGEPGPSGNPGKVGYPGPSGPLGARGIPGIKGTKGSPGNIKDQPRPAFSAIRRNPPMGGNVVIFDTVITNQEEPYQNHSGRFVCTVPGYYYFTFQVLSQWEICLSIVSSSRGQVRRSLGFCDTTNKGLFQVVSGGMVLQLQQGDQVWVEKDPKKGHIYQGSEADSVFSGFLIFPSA
complement factor C1q (Sigma, C1740), sequence (P02746 28-253, chain 2 of 3, further chain): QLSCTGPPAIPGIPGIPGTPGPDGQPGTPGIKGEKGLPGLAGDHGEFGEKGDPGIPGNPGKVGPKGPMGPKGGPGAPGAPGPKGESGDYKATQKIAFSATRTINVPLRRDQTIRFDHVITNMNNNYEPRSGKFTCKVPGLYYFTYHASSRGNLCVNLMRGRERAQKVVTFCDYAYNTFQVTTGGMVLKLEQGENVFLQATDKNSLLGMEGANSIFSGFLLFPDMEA
complement factor C1q (Sigma, C1740), sequence (P02747 29-245, chain 3 of 3, further chain): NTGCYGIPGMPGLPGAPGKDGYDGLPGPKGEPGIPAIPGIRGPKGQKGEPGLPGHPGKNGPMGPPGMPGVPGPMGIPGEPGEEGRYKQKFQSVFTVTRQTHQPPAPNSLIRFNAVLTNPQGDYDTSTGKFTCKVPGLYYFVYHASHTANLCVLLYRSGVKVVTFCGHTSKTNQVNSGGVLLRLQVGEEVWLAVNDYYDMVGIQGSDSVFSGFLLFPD

Question: “combination of trastuzumab and pertuzumab” was tested. Which PE-signal (geomean) did it give?
Answer: 2160
